According to US20180016328A1 (WASHINGTON UNIVERSITY, published 2018):

Biological target: T1, mouse tau (mouse, UniProt P10637-2 2-430, limits assumed)
T1 construct: also called mouse brain lysate comprising tau
Assay: Western blot of mouse brain lysate probed with the scFv (FIG. 4)
Description: FIG. 4 depicts Western blots showing that the scFv's detect human but not mouse tau. Mouse brain lysate comprising tau and recombinant human tau were both run on a gel and the scFv's SC1 (A) and SC3 (B) were used to detect tau. Recombinant human tau was detected by SC1 and SC3; mouse tau was not. Anti-vinculin Western blot was used as a loading control for tissue samples.

T1 sequence (P10637 other isoform, or with tags, fused parts or gaps limits assumed): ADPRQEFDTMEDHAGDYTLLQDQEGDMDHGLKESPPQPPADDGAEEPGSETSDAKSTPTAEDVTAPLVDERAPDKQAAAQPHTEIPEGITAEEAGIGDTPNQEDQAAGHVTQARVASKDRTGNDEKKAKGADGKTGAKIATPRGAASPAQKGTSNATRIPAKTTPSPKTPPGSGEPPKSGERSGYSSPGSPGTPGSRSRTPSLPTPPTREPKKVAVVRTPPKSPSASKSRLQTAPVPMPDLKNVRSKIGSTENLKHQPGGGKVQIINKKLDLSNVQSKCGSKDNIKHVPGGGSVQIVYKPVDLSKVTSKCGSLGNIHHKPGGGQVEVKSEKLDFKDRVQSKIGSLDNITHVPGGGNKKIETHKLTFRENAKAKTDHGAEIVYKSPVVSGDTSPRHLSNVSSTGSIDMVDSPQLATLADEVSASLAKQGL

B1: SC1 scFv HJ8.5 HA (scFv)
scFv: DIVLTQSPASLAVSLGQRATISCRASQSVSTSRYSYIHWYQQKPGQPPKLLIKYASNLESGVPARFSGSGSGTDFTLNIHPLEEEDAATYYCHHSWEIPLTFGAGTKLELKGGGSEVKVEESGGGLVQPGGSMKLSCVVSGFTFSNYWVNWVRQSPEKGLEWVAQIRLKSDNYATHYEESVKGRFTISRDDSKSSVYLQMNNLRAEDSGIYYCTNWEDYWGQGTTLTVSSYPYDVPDYA
notes: Encoded with an N-terminal secretory signal peptide (SP), left out here because the secreted protein was tested; also called HJ8.5 scFv SC1
Question: Does B1 bind?
Answer: no binding

B2: SC3 scFv HJ8.5 HA (scFv)
scFv: DIVLTQSPASLAVSLGQRATISCRASQSVSTSRYSYIHWYQQKPGQPPKLLIKYASNLESGVPARFSGSGSGTDFTLNIHPLEEEDAATYYCHHSWEIPLTFGAGTKLELKSGGGSGGGSGGGSEVKVEESGGGLVQPGGSMKLSCVVSGFTFSNYWVNWVRQSPEKGLEWVAQIRLKSDNYATHYEESVKGRFTISRDDSKSSVYLQMNNLRAEDSGIYYCTNWEDYWGQGTTLTVSSYPYDVPDYA
notes: Encoded with an N-terminal secretory signal peptide (SP), left out here because the secreted protein was tested; also called HJ8.5 scFv SC3
Question: Does B2 bind?
Answer: no binding
